US20230071371A1 (Scripps Research, published 2023)
Bridges are numbered along the chain shown (N, C = ends). Where no end group is shown, it is not given here. [ ]: non-standard residue; d: D form. L5A = not defined here; Aib = CC(C)(N)C(=O)O

How the values were obtained:
[1] = target: human serum albumin (human) (UniProt P02768); test: calculated from the SPR affinity
rat serum albumin (rat) = rat serum albumin (rat) (UniProt P02770); test: calculated from the SPR affinity
human GLP-1R [2] = target: T1, human GLP-1R (human, UniProt P43220 24-463)
Target sequence in this assay (P43220 24-463): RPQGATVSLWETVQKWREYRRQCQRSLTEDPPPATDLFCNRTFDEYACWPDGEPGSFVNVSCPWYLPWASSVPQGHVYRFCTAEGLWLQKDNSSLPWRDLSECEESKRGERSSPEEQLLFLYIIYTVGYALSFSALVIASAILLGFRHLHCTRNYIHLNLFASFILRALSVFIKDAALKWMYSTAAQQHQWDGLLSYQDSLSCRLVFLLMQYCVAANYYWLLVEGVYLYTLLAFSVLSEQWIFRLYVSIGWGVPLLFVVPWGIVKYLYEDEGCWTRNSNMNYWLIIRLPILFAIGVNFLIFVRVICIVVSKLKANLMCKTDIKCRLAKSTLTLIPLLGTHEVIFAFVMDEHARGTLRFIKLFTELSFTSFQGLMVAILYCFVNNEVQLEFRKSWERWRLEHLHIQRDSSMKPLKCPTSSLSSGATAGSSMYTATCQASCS

human GIPR = target: T2, human GIPR (human, UniProt P48546 22-466)
T2 sequence (looked up): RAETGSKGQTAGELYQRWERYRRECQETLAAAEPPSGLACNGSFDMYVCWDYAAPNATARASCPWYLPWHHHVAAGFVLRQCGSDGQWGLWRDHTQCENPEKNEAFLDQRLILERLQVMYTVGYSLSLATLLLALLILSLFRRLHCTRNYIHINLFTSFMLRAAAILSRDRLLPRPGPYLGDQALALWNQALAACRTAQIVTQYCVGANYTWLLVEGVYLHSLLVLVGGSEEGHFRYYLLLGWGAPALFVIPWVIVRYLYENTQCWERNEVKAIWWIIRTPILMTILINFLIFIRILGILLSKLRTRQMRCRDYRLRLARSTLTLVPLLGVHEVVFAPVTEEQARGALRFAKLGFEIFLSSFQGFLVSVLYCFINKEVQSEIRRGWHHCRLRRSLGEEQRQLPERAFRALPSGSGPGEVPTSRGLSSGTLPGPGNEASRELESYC

human GLP-1R [3] = target: T1, human GLP-1R; test: cell-based or functional assay

Sequence of human serum albumin (human) (P02768 25-609 limits assumed): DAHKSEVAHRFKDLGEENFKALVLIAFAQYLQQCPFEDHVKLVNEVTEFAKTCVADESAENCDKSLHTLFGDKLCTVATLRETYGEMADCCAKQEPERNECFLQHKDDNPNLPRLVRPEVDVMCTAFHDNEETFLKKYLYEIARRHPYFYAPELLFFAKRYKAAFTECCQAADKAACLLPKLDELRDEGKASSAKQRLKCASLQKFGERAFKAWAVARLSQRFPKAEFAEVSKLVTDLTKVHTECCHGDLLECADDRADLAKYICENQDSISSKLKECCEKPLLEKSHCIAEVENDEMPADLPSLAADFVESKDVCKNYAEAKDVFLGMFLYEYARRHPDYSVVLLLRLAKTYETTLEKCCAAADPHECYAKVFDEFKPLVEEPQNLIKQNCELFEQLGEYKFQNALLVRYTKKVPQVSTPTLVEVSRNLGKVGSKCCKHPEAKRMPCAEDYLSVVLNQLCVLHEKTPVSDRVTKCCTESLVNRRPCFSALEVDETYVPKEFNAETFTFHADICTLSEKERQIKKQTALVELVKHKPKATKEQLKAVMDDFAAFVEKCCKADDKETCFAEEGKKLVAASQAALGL
Sequence of rat serum albumin (rat) (P02770 25-608 limits assumed): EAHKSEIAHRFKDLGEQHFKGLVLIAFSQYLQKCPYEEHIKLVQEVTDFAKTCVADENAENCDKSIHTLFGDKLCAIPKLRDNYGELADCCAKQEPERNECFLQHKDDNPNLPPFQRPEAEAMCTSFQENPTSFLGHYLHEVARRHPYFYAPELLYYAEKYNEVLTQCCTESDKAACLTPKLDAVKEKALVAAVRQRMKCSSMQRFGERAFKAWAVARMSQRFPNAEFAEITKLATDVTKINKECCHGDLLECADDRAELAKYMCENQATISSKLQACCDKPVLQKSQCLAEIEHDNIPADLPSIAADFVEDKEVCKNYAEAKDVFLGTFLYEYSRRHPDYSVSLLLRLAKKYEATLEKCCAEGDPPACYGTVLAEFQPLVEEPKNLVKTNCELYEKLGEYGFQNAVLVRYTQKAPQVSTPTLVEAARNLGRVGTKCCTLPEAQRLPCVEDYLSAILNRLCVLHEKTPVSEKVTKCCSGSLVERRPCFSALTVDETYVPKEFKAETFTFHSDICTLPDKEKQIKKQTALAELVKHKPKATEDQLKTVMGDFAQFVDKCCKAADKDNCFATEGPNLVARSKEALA

In the case of semaglutide (peptide), the fu (unbound fraction) [1] is reported as 0.69% and the fu (unbound fraction) (rat serum albumin (rat)) is reported as 3.3%.

Work on Tirzepatide (peptide) yielded an EC50 (read off the curve), CRE-luciferase reporter, GLP1R-Creluc (human GLP-1R [2]) of 0.2 nM.

With NNC0090-2746 (peptide) the EC50 (read off the curve), CRE-luciferase reporter, GIPR Creluc (human GIPR) was 0.008 nM.

B1: Conjugate 181 (peptide)
peptide: HXEGTFTSDVSSYLEGKAAKEFIKWLVKGRG
modifications: staple K5 on Lys 17, 24; Aib 2; C-terminal -OH
For B1, the “EC50 cAMP 0% FBS” value (human GLP-1R [3]) was 0.026 nM.

B2: Conjugate 186 (peptide)
peptide: H[Aib]EGTFTSDVSSYLEGCAAKEFICWLVKGRG-OH
modifications: linker 17-24 via L5A; reading uncertain
With B2 the “EC50 Cre-Luc” value (human GLP-1R [3]) was 7.3 nM.
